The text below walks through data of publication doi:10.1101/2022.10.06.511078.

For one test, the target named is Cofilin-1 (human) (UniProt P23528). Description: SPR. A general note: Surface plasmon resonance follows binding to a sensor surface in real time, without labels.
Test [1] addresses Ubiquitin carboxyl-terminal hydrolase isozyme L1 (human) (UniProt P09936). Description: SPR.

Cofilin-1 (human), sequence (P23528 whole entry): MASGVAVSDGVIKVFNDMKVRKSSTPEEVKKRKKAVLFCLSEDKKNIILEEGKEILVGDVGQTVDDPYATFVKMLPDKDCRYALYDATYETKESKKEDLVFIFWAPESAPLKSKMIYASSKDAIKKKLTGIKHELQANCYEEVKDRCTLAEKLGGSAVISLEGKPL
Ubiquitin carboxyl-terminal hydrolase isozyme L1 (human), sequence (P09936 whole entry): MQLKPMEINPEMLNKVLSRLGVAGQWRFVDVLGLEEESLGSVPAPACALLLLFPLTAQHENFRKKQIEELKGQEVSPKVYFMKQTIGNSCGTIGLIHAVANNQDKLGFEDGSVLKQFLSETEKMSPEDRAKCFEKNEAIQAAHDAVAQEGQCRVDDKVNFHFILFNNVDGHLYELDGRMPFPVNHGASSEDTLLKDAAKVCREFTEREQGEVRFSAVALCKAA

One may read the Kd as the equilibrium constant for the complex coming apart. A high value points to weaker binding. Turning to “α-synuclein oligomer (from UniProt P37840 1-140) (natural protein)”, the Kd with Cofilin-1 (human) is 0.29 µM; in test [1], 0.6 µM.
